B1: Ribonuclease, P00648 (parent)
chain: MMKMEGIALKKRLSWISVCLLVLVSAAGMLFSTAAKTETSSHKAHTEAQVINTFDGVADYLQTYHKLPDNYITKSEAQALGWVASKGNLADVAPGKSIGGDIFSNREGKLPGKSGRTWREADINYTSGFRNSDRILYSSDWLIYKTTDHYQTFTKIR

Variants of: B1
Conditions: Bacillus amyloliquefaciens; pH 6.3; 25 °C; Urea; Fluorescence; MES 1.00 M; NaCl 613 mM; reversible: yes; structure 1BNI; whole UniProt chain shown

Variant	ddG of mutation (higher = less stable) [kcal/mol]	denaturant midpoint (higher = more stable) [M]
MMKMEGIALKKRLSWISVCLLVLVSAAGMLFSTAAKTETSSHKAHTEAQVINTFAGVAAYLQTYHKLPDNYITKSEAQALGWVASKGNLADVAPGKSIGGDIFSNREGKLPGKSGRTWREADINYTSGFRNSDRILYSSDWLIYKTTDHYQTFTKIR	0.89	4.16
MMKMEGIALKKRLSWISVCLLVLVSAAGMLFSTAAKTETSSHKAHTEAQVINTFAGVADYLQTYHKLPDNYITKSEAQALGWVASKGNLADVAPGKSIGGDIFSNREGKLPGKSGRTWREADINYTSGFRNSDRILYSSDWLIYKTTDHYQTFTKIA	0.47	4.36
MMKMEGIALKKRLSWISVCLLVLVSAAGMLFSTAAKTETSSHKAHTEAQVINTFDGVAAYLQTYHKLPDNYITKSEAQALGWVASKGNLADVAPGKSIGGDIFSNREGKLPGKSGRTWREADINYTSGFRNSDRILYSSDWLIYKTTDHYQTFTKIR	0.34	4.42
MMKMEGIALKKRLSWISVCLLVLVSAAGMLFSTAAKTETSSHKAHTEAQVINTFAGVADYLQTYHKLPDNYITKSEAQALGWVASKGNLADVAPGKSIGGDIFSNREGKLPGKSGRTWREADINYTSGFRNSDRILYSSDWLIYKTTDHYQTFTKIR	0.99	4.12
MMKMEGIALKKRLSWISVCLLVLVSAAGMLFSTAAKTETSSHKAHTEAQVINTFAGVAAYLQTYHKLPDNYITKSEAQALGWVASKGNLADVAPGKSIGGDIFSNREGKLPGKSGRTWREADINYTSGFRNSDRILYSSDWLIYKTTDHYQTFTKIA	-0.11	4.63
MMKMEGIALKKRLSWISVCLLVLVSAAGMLFSTAAKTETSSHKAHTEAQVINTFDGVADYLQTYHKLPDNYITKSEAQALGWVASKGNLADVAPGKSIGGDIFSNREGKLPGKSGRTWREADINYTSGFRNSDRILYSSDWLIYKTTDHYQTFTKIA	0.46	4.37

Source: FireProtDB (doi:10.1016/0022-2836(92)90557-z)
